Experiment [1] deals with T1, HA-tagged LRP6 on LRP6-transduced HT1080 cells (UniProt O75581 20-1613, limits assumed).
T1 construct: whole, on cells; the only LRP6 cDNA named in the materials is human; also called mature LRP6 at the cell surface; cell surface LRP6; not shown: HA tag
Briefly: binding of truncated Mesd mutant to cell surface LRP6.

In experiment [2] the target is T1, HA-tagged LRP6 on LRP6-transduced …. Description: conditioned medium on LRP6-transduced HT1080 cells, anti-Myc immunofluorescence. The protocol:
To facilitate immunodetection, a c-Myc epitope was included at the C-terminus. The integrity of the subcloned DNA sequence was confirmed by DNA sequencing. Human DKK1-conditioned media were produced by transient transfection of HEK293 cells with pcDNADKK1-Myc in serum-free medium, and allowed to bind to LRP6-transduced HT1080 cells and control cells at room temperature for 60 minutes in the absence or presence of 1 μM Mesd. Cells were then fixed in 4% paraformaldehyde, labeled with anti-Myc monoclonal antibody and detected with Alexa-488 goat anti-mouse IgG. The immunofluorescence was detected by a laser-scanning confocal microscope (Olympus Fluoview 500).
RAP is a receptor antagonist for members of the LDLR family, and is able to inhibit the binding of most known ligands of the LDLR family members. DKK1 is an LRP6-specific ligand and antagonist. […] In these experiments, Serum-free conditioned medium was harvested from HEK293 cells transiently transfected with cDNA for human Myc-DKK1 and allowed to bind to LRP6-transduced HT1080 cells (B,C) and control cells (A) in the absence (A,B) or presence (C) of 1 μM Mesd. Cell-surface-bound Myc-tagged DKK proteins were fixed and detected by immunofluorescence staining with anti-Myc antibody. (D) DKK1 binding to cell surface LRP6 is inhibited by Mesd. […] (E) LRP6-mediated DKK1 degradation is inhibited by Mesd. […]

Experiment [3] has the same target. Briefly: 125I-DKK1 (5 nM) binding to LRP6-transduced HT1080 cells, 3 h at 4 C. The protocol:
RAP is a receptor antagonist for members of the LDLR family, and is able to inhibit the binding of most known ligands of the LDLR family members. DKK1 is an LRP6-specific ligand and antagonist. […] In these experiments, Serum-free conditioned medium was harvested from HEK293 cells transiently transfected with cDNA for human Myc-DKK1 and allowed to bind to LRP6-transduced HT1080 cells (B,C) and control cells (A) in the absence (A,B) or presence (C) of 1 μM Mesd. Cell-surface-bound Myc-tagged DKK proteins were fixed and detected by immunofluorescence staining with anti-Myc antibody. (D) DKK1 binding to cell surface LRP6 is inhibited by Mesd. […] (E) LRP6-mediated DKK1 degradation is inhibited by Mesd. LRP6-mediated […] (5 nM) degradation was carried out for 4 hours at 37° C. in the absence or presence of 500 nM RAP or 500 nM Mesd. Values are the means of triple determinations with the s.d. indicated by error bars. Bar, 10 μm. As expected, Myc-tagged DKK1 binds to LRP6 cells (FIG. 9B) but not to the control cells (FIG. 9A).

Experiment [4] addresses LRP6 (as used in Example 11) (UniProt O75581 20-1613, limits assumed). Briefly: competition with 125I-DKK1 for LRP6.
The target in experiment [5] is LRP5 (as used in Example 11) (UniProt O75197 32-1615, limits assumed). Briefly: competition with 125I-Mesd for LRP5.
In experiment [6] the target is T1, HA-tagged LRP6 on LRP6-transduced …. Description: 125I-Mesd saturation binding to LRP6-transduced HT1080 cells, 3 h at 4 C, Scatchard analysis. The protocol:
To examine whether Mesd binds with high affinity to most members of the LDLR family at the cell surface, we performed cell surface ligand binding experiments with cells stably transduced with LRP6 cDNA. Human HT1080 cells, which express undetectable levels of LRP6, were transduced with a viral vector alone (pLNCX2) or with vector containing LRP6 cDNA (Li, Y., Oncogene 23: 9129-9135, 2004) and used for ¹²⁵I-Mesd binding (FIG. 1A). ¹²⁵I-Mesd (5 nM) reached maximal binding after 2 hours incubation at 4° C. with LRP6-expressing HT1080 cells (FIG. 1A). Inclusion of excess unlabeled Mesd (500 nM) completely eliminated this binding.
(A) Time course of ¹²⁵I-Mesd (5 nM) binding to LRP6-transduced HT1080 cells and the control cells. Assay was carried out for the indicated periods at 4° C. in the absence (total) or presence of 500 nM Mesd (non-specific). (B) Saturation binding of ¹²⁵I-Mesd to LRP6-transduced HT1080 cells and the control cells. Assay was carried out at indicated concentrations for 3 hours at 4° C. in the absence (total) or presence (non-specific) of 500 nM Mesd. (C) Scatchard plots of data in B. All values are the average of triple determinations with the s.d. indicated by error bars.

Experiment [7] shares this target. Briefly: 125I-Mesd (150-195) (5 nM) binding to LRP6-transduced HT1080 cells, 3 h at 4 C. The method, then: In this example, a truncated Mesd mutant containing the last 45 amino acids of C-terminal region was generated (FIG. 3A) and its binding affinity for LRP6 was then analyzed. […] (A) Binding analyses of ¹²⁵I-Mesd and its mutant Mesd (150-195) (5 nM) to LRP6-transduced HT1080 cells and control cells. (B) Binding analyses of ¹²⁵I-Mesd and its mutant Mesd (150-195) (5 nM) to LRP6-transduced HT1080 cells. Assays were carried out for 3 hours at 4° C. in the absence or presence of 500 nM Mesd or its mutant. Values are the means of triple determinations with the s.d. indicated by error bars.

Consider seven molecules from patent US20100120685A1 (WASHINGTON UNIVERSITY, published 2010).

No end group written: not given here. Where only a bound is given, the exact number is not on record here.

A word on the Kd: it is a measure of binding affinity in units of concentration. Read a low Kd as a tighter complex.

T1 sequence (O75581 20-1613 limits assumed): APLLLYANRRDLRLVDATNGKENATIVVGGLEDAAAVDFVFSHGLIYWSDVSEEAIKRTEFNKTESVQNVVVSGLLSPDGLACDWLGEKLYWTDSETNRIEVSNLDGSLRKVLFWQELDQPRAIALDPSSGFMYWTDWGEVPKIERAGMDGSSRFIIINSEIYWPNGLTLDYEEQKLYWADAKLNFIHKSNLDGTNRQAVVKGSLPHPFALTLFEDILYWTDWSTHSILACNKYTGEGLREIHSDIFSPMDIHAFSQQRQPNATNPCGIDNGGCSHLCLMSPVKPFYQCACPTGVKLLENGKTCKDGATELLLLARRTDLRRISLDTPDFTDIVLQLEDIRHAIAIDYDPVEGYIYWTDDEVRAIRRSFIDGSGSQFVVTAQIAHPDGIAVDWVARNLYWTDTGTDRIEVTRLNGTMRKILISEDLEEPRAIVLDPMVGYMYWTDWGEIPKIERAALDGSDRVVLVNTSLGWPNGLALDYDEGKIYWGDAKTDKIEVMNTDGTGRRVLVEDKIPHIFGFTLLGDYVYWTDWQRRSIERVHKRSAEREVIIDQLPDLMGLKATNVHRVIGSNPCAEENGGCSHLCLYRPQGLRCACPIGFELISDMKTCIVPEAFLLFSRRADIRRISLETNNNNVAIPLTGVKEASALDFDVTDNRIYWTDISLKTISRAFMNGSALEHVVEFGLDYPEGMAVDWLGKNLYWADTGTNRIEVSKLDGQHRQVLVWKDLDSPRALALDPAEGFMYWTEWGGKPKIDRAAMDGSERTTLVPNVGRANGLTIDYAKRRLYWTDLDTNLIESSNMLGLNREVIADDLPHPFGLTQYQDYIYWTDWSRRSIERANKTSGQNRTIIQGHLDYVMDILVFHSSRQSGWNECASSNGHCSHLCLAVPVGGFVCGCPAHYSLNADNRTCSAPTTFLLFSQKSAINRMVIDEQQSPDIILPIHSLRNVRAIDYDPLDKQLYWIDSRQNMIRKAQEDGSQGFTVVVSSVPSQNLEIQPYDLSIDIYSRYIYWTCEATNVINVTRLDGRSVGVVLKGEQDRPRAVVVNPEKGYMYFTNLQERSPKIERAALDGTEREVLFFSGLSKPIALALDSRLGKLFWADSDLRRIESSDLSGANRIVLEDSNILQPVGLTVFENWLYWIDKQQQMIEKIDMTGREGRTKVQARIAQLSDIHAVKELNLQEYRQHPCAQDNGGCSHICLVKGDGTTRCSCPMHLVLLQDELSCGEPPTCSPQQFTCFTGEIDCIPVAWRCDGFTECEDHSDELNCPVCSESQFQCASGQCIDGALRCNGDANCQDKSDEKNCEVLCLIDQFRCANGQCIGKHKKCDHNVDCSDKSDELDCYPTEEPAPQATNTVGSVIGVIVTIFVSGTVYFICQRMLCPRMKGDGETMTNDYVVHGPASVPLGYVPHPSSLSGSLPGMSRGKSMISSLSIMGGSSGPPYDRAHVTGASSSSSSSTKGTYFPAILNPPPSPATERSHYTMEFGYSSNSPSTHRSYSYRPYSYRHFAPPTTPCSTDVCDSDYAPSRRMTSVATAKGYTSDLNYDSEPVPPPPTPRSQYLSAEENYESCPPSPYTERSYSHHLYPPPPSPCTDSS
Sequence of LRP6 (as used in Example 11) (O75581 20-1613 limits assumed): as above
Sequence of LRP5 (as used in Example 11) (O75197 32-1615 limits assumed): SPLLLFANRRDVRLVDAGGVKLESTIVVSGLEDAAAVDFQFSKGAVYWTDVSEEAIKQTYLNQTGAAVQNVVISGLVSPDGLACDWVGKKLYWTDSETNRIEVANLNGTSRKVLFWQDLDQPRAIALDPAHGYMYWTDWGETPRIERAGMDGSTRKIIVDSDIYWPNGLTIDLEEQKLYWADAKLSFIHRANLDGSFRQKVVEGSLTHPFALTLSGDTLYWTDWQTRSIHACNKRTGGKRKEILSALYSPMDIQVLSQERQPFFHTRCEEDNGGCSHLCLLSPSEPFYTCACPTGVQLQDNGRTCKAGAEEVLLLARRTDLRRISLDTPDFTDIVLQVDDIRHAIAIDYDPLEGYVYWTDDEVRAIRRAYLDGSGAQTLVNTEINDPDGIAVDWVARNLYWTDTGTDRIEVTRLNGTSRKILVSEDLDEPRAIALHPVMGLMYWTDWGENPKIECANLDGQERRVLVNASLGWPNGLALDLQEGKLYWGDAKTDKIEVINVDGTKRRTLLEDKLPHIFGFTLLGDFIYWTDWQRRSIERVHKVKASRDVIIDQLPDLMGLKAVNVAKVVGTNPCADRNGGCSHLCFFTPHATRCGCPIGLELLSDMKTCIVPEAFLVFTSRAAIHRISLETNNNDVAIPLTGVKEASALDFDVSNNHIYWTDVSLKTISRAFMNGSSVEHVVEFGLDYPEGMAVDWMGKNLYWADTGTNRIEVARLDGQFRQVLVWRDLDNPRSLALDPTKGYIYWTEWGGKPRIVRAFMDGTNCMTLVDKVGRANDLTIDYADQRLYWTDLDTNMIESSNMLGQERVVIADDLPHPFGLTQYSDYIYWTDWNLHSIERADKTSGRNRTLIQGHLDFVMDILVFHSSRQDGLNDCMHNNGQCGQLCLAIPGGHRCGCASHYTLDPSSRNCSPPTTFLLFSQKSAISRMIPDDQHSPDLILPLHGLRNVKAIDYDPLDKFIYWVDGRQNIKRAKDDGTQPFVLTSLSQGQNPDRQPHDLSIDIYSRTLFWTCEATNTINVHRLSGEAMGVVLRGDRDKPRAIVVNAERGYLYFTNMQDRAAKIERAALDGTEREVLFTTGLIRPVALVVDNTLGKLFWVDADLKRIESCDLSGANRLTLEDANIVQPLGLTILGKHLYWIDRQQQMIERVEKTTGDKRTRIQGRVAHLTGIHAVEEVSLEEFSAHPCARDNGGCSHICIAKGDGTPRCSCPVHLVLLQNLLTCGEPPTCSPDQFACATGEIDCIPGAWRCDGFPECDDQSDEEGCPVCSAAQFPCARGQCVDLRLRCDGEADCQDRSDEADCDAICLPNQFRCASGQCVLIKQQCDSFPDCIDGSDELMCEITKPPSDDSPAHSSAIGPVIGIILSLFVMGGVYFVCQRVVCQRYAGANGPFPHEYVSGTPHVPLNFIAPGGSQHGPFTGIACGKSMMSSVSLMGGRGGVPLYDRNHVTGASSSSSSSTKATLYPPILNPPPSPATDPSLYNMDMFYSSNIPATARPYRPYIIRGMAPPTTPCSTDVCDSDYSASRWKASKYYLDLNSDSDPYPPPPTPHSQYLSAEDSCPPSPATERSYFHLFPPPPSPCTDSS

B1: Mesd (12-155) (other)
chain: RKKKDIRDYNDADMARLLEQWEKDDDIEEGDLPEHKRPSAPIDFSKLDPGKPESILKMTKKGKTLMMFVTVSGNPTEKETEEITSLWQGSLFNANYDVQRFIVGSDRAIFMLRDGSYAWEIKDFLVSQDRCAEVTLEGQMYPGK
notes: also called truncated Mesd mutant lacking both the N-terminal and C-terminal regions; not shown: N-terminal polyhistidine tail from pET-30a(+)
For B1, in experiment [1], the binding result was “no binding”.

B2: Mesd (12-195) (other)
chain: RKKKDIRDYNDADMARLLEQWEKDDDIEEGDLPEHKRPSAPIDFSKLDPGKPESILKMTKKGKTLMMFVTVSGNPTEKETEEITSLWQGSLFNANYDVQRFIVGSDRAIFMLRDGSYAWEIKDFLVSQDRCAEVTLEGQMYPGKGGGSKEKNKTKPEKAKKKEGDRKPRASKEDNRAGSRREDL
notes: also called truncated Mesd mutant lacking the N-terminal region; not shown: N-terminal polyhistidine tail from pET-30a(+)
Turning to B2, the binding result in experiment [1] is recorded as “binds”.

B3: human Myc-tagged DKK1 (conditioned medium of HEK293 cells) (ligand, UniProt O94907 32-266, looked up, not shown: small tags and cut ends)
chain: TLNSVLNSNAIKNLPPPLGGAAGHPGSAVSAAPGILYPGGNKYQTIDNYQPYPCAEDEECGTDEYCASPTRGGDAGVQICLACRKRRKRCMRHAMCCPGNYCKNGICVSSDQNHFRGEIEETITESFGNDHSTLDGYSRRTTLSSKMYHTKGQEGSVCLRSSDCASGLCCARHFWSKICKPVLKEGQVCTKHRRKGSHGLEIFQRCYCGEGLSCRIQKDHHQASNSSRLHTCQRH
notes: also called Myc-DKK1; DKK1-Myc
For the molecule B3, the binding result in experiment [2] is listed as “binds”.

B4: human recombinant DKK1 protein (ligand, UniProt O94907 32-266, looked up)
chain: B3 chain
modifications: 125I-labelled (IODO-GEN method)
notes: Bought
For the molecule B4, in experiment [3], the binding result is “binds”.

B5: recombinant mouse Mesd protein (wild type) (other, not shown: small tags and cut ends)
chain: ADTPGEATPPPRKKKDIRDYNDADMARLLEQWEKDDDIEEGDLPEHKRPSAPIDFSKLDPGKPESILKMTKKGKTLMMFVTVSGNPTEKETEEITSLWQGSLFNANYDVQRFIVGSDRAIFMLRDGSYAWEIKDFLVSQDRCAEVTLEGQMYPGKGGGSKEKNKTKPEKAKKKEGDRKPRASKEDNRAGSRREDL
modifications: 125I-labelled (IODO-GEN method) where used as tracer
notes: Expressed in E. coli BL21(DE3) from pET-30a(+); 'All the recombinant Mesd proteins lack the Mesd signal peptide'; also called Mesd polypeptide
As for B5, the “fold reduction of 125I-DKK1 binding” value in experiment [4] was more than 2 fold. Also, the “fold reduction of 125I-Mesd binding” value in experiment [5] was approximately 10 fold. Besides, the Kd in experiment [6] is approximately 3.3 nM.

B6: Mesd (150-195) (peptide)
chain: QMYPGKGGGSKEKNKTKPEKAKKKEGDPKPRASKEDNRAGSRREDL
modifications: also: 125I-labelled where used as tracer
notes: also called truncated Mesd mutant containing the last 45 amino acids of C-terminal region; Mesd (150-195) peptide; not shown: N-terminal polyhistidine tail from pET-30a(+) if made like the other recombinant Mesd mutants
As for B6, the binding result in experiment [7] is “binds”.

With KGGGSKEKNKTKPEKAKKKEGDPKPRASKEDNRAGSR (also called the oligopeptide) [Mesd oligopeptide KGGGSKEKNKTKPEKAKKKEGDPKPRASKEDNRAGSR], the “fold reduction of 125I-DKK1 binding” value in experiment [4] is more than 2 fold. For the same molecule, the “fold reduction of 125I-Mesd binding” value in experiment [5] is approximately 10 fold.
